The source of these data is patent US12371675B2, “Process and microorganism for synthesis of adipic acid from carboxylic acids” (THE GOVERNING COUNCIL OF THE UNIVERSITY OF TORONTO, priority 2015, dated 2025).

Data set [1] can be described thus: Whole-cell biotransformation with E. coli strains over-expressing OYEs. The data set is classed as cell-based. To be noted: E. coli over-expressing OYE.
The nature of data set [2]: OYE hydrogenation activity screen, NADPH oxidation at 340 nm. The data set is classed as biochemical. To be noted: 1 mM substrate, 0.25 mM NADPH, 2.5 μg protein; cut-off 0.05 U/mg protein; ND = not detected. The procedure, abridged:
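Purified OYEs (2.5 μg) were incubated anaerobically for 20 min at room temperature with 1 mM substrate and 0.25 mM NADPH in 50 mM potassium phosphate pH 7.0, 10 mM NaCl. Activity was followed as NADPH oxidation by the absorbance decrease at 340 nm (ε340=6,200/M·cm).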

The nature of data set [3]: Whole-cell anaerobic biotransformation by E. coli expressing EREDs. The data set is classed as cell-based. To be noted: 20 mM 2-hexenedioic acid.
Data set [4] in a line: Whole-cell biotransformation of muconic acid by E. coli expressing EREDs. It is filed as cell-based. Particulars: 0.7 mM, 24-hr incubation. How it is done:
After a 24-hr incubation, no muconic acid or 2-hexenedioic acid were detected in the culture, and a 99% yield of adipic acid was obtained (FIGS. 8a, 8b, and 8c). […] The 3-hexenedioic acid-like compound appears to be an inefficient substrate for these EREDS. This is similar to the mutated 2,4-dienoyl-CoA reductases from E. coli, which catalyze hydrogenation of 2,4-dienoyl CoA into 3-enoyl CoA (Tu, X., Hubbard, P. A., Kim, J. J. P. & Schulz, H. Two distinct proton donors at the active site of Escherichia coli 2,4-dienoyl-CoA reductase are responsible for the formation of different products. Biochemistry 47, 1167-1175 (2008).).

Data set [5] in a line: In vivo whole cell biotransformation by E. coli expressing CARs. The data set is classed as cell-based. Particulars: 24 h. How it is done: E. coli cells expressing recombinant CARs with BSU03570 phosphopantetheinyl transferase were grown on LB media with […], supplemented with 2% glycerol aerobically on 37° C., until the culture optical density (OD 600 nm) reached 0.6-0.8. At this point protein expression was induced with 0.4 mM IPTG and substrate (adipic acid or 4-hydroxybutyric acid) for final 10 mM concentration was added. Samples were taken at 6 h, 24 h and 48 h, centrifuged, supernatant was filtered through 10 kDa centrifugal filters. Products were analyzed with HPLC or LC-MS. Negative control experiments were performed using E. coli cells harboring empty plasmids. All results of in vivo experiments are means from at least two independent determinations.

The nature of data set [6]: CAR reductase activity, NADPH oxidation at 340 nm. The data set is classed as biochemical. To be noted: ND = no activity was detected. As to the method: Reductase activity was measured spectrophotometrically by following the oxidation of NADPH depletion at 340 nm.
It has been shown that the N. iowensis CAR has a broad substrate range, though its maximal activity was usually observed with aromatic substrates such as benzoic and cinnamic acids. CARs gene sequences homologues to the N. iowensis CAR (Uniprot number: Q6RKB1), were selected from GenBank database. Based on presence of adenylation (AMP-binding PF00501) and reduction (NAD-binding PF07993) domains accompanied with phosphopantetheinyl binding motif (PF00530) 13 CAR genes (mostly from Mycobacterium) were cloned and expressed in E. coli. (Table 4). As CAR activation enzymes, phosphopantetheinyl transferases (PPTs) from E. coli (P19925) and Bacillus subtilis (P39135), were used which were co-expressed with the selected CAR genes from a separate plasmid. Using 1-liter E. coli cultures with overnight induction by IPTG, 12 soluble CAR proteins were purified using affinity chromatography on a Ni-NTA resin.

Data set [7] can be described thus: In vitro biotransformation by CARs coupled with aldehyde reductase PP_3370. It is filed as biochemical. Particulars: Table 12 title: 10 mM adipic acid (12 h) in vitro, CARs coupled with PP3370.
Assay in data set [8]: as above
The data set is classed as biochemical. Particulars: Table 12 title: 10 mM 4-hydroxybutyric acid (12 h) in vitro, CARs coupled with PP3370.

B1: EC5625: OYE protein from Escherichia coli K12 (protein)
chain: MSSEKLYSPLKVGAITAANRIFMAPLTRLRSIEPGDIPTPLMAEYYRQRASAGLIISEATQISAQAKGYAGAPGIHSPEQIAAWKKITAGVHAENGHMAVQLWHTGRISHASLQPGGQAPVAPSALSAGTRTSLRDENGQAIRVETSMPRALELEEIPGIVNDFRQAIANAREAGFDLVELHSAHGYLLHQFLSPSSNHRTDQYGGSVENRARLVLEVVDAGIEEWGADRIGIRVSPIGTFQNTDNGPNEEADALYLIEQLGKRGIAYLHMSEPDWAGGEPYTDAFREKVRARFHGPIIGAGAYTVEKAETLIGKGLIDAVAFGRDWIANPDLVARLQRKAELNPQRAESFYGGGAEGYTDYPTL
With B1, the “hydrogenation of 2-hexenedioic acid into adipic acid” value (from here on “hydrogenation”) in data set [1] is “no hydrogenation”. Also, in data set [2], the “Activity [U/mg protein] 2-cyclohexen-1-one” value is given as 0.18 U/mg protein.

B2: YST4373: OYE protein from Saccharomyces cerevisiae (protein)
chain: MPFVKDFKPQALGDTNLFKPIKIGNNELLHRAVIPPLTRMRAQHPGNIPNRDWAVEYYAQRAQRPGTLIITEGTFPSPQSGGYDNAPGIWSEEQIKEWTKIFKAIHENKSFAWVQLWVLGWAAFPDTLARDGLRYDSASDNVYMNAEQEEKAKKANNPQHSITKDEIKQYVKEYVQAAKNSIAAGADGVEIHSANGYLLNQFLDPHSNNRTDEYGGSIENRARFTLEVVDAVVDAIGPEKVGLRLSPYGVFNSMSGGAETGIVAQYAYVLGELERRAKAGKRLAFVHLVEPRVTNPFLTEGEGEYNGGSNKFAYSIWKGPIIRAGNFALHPEVVREEVKDPRTLIGYGRFFISNPDLVDRLEKGLPLNKYDRDTFYKMSAEGYIDYPTYEEALKLGWDKN
Consider B2, for which the “hydrogenation” value in data set [1] is on record as “no hydrogenation”. In data set [2], the “Activity [U/mg protein] 2-cyclohexen-1-one” value came out at 0.23 U/mg protein and the “Activity [U/mg protein] acrolein” value was determined as 0.17 U/mg protein.

B3: EREDMT: 2-enoate reductase (ERED) from Moorella thermoacetica ATCC 39073 (protein)
chain: MVVAYTRLFEPIKIGKVEIKNKIAMAPMGVLGLATQDGCFSKRVVDYYVERAKGGTGLIITSVTKVDNEIERFKAGAVPVATANPLHFIATAGELTERVHAYGTKIFLQLGMGFGRVAAPILLESHPVAPSALPNFWDPSITCRELTTAEVETLVQRASEAAEIAVEAGFDGVEIHAMHEGYLLDQFTIALFNRRGDKYGGALEDRLTFPIEIVRAIKDRVGKDFPVVLRFSIKNYIKDWRQGGLPGENFQEKGRDVEEALAAAKILEGAGYDGFDADAGSYDAWYWAHPPVYQKHGCYLPLTQRLKEVVKVPVIVAGRLEIPELAEEALVKGQADMIAIGRGLLTDPYWVNKVMTGRSKNIRPCIGCHDGCLGRGFLGRPLSCTVNPACGREEEYAIDRAPEAKQVMVIGGGVAGMEAARVAALRGHRVSLYEKSDRLGGHVVEAAVPDFKADDGRLLEWYKTELGELQVEIHLNQEVTPEFVEEKNPDVVVVATGSTPAIPDIPGVNKDKVTTVSDLLLGKKQAGDRVVIIGGGLAGCETALWLAQQGKDVTIIEILDDLMRAGIPVPYMNRMMLLDLLKMNGVKWLTETSVLEVTDDGVTLIGKTYQRSPLPADTVILAVGFAADQRLYNALRDKIPNLYLIGDSREPRNILAAIWEGYEVGRGI
For B3, in data set [3], the “time to complete conversion of 2-hexenedioic acid to adipic acid” value came to 6 h. Besides, in data set [4], the “yield of adipic acid from cis,cis-muconic acid” value amounted to 99% and the “yield of adipic acid from trans,trans-muconic acid” value is recorded as 99%.

B4: EREDCT: 2-enoate reductase (ERED) from Clostridium tyrobutyricum (protein)
chain: MKNKSLFEPIKIGKVEVKNKISMAPMGAFGLVDNEGCYNQRAVDYYVERAKGGTGLIITSITKVENEIDKVVPGVIPIISINPGRFIMTSSEMTERVHSYGSKIFLQLTMGFGRSGAPGTLLTSQPVSASSVPNYWDPTVTCRELTTSEVEWIVAKFIQGAAIAQKAGFDGVEIHAVHEGYLLDQFTLSIFNRRTDKYGGDLRGRLQLPIEIVQGIKAQVGSDFPVGLRYSVKSCIKDWRQGGLPDEDYVEKGRDLKEGLESAKILEAAGYDELNTDVGTYDAWYWSHPPLYQKDGLYLPYTKELKKVVKIPVIVAGKLGVPQEAEKALDEGGADMIGLARPLLSDAYWPKKVLSGHPERIRPCIGCHVGCLGRGFEGKPLSCAVNPAAGRERYYEIRPAAIPKKVLIAGGGVAGMEAARMAVLRGHKVTLYESTDQLGGEIVPGSVPDFKIDDRRLLDWYRNEMKELKINVIFNTEVTDKLVGKEQPDVVIVATGANDVKIKLPGIEKDKVSTAVDILNGAKKSGKNVLIVGGGLVGCETALYLAKAGKKVAIVEAKDKILDAGKPIPHMNKIMLEDLIKKYNIKVITGNSLLEVTGDGAVLIDNKFKQQEVYADTIVISIGFKSNRKLYNKLHGKVTDLYLIGDAYQTANIMDAIWSGNEIGLNC
B4: the “production of adipic acid” value in data set [3] is “inactivity”.

B5: MSMEI_5586: carboxylate reductase (CAR) from M. smegmatis ATCC 700084 (protein)
chain: MHQLTVTGMNICEVQRLFPRMTSDVHDATDGVTETALDDEQSTRRIAELYATDPEFAAAAPLPAVVDAAHKPGLRLAEILQTLFTGYGDRPALGYRARELATDEGGRTVTRLLPRFDTLTYAQVWSRVQAVAAALRHNFAQPIYPGDAVATIGFASPDYLTLDLVCAYLGLVSVPLQHNAPVSRLAPILAEVEPRILTVSAEYLDLAVESVRDVNSVSQLVVFDHHPEVDDHRDALARAREQLAGKGIAVTTLDAIADEGAGLPAEPIYTADHDQRLAMILYTSGSTGAPKGAMYTEAMVARLWTMSFITGDPTPVINVNFMPLNHLGGRIPISTAVQNGGTSYFVPESDMSTLFEDLALVRPTELGLVPRVADMLYQHHLATVDRLVTQGADELTAEKQAGAELREQVLGGRVITGFVSTAPLAAEMRAFLDITLGAHIVDGYGLTETGAVTRDGVIVRPPVIDYKLIDVPELGYFSTDKPYPRGELLVRSQTLTPGYYKRPEVTASVFDRDGYYHTGDVMAETAPDHLVYVDRRNNVLKLAQGEFVAVANLEAVFSGAALVRQIFVYGNSERSFLLAVVVPTPEALEQYDPAALKAALADSLQRTARDAELQSYEVPADFIVETEPFSAANGLLSGVGKLLRPNLKDRYGQRLEQMYADIAATQANQLRELRRAAATQPVIDTLTQAAATILGTGSEVASDAHFTDLGGDSLSALTLSNLLSDFFGFEVPVGTIVNPATNLAQLAQHIEAQRTAGDRRPSFTTVHGADATEIRASELTLDKFIDAETLRAAPGLPKVTTEPRTVLLSGANGWLGRFLTLQWLERLAPVGGTLITIVRGRDDAAARARLTQAYDTDPELSRRFAELADRHLRVVAGDIGDPNLGLTPEIWHRLAAEVDLVVHPAALVNHVLPYRQLFGPNVVGTAEVIKLALTERIKPVTYLSTVSVAMGIPDFEEDGDIRTVSPVRPLDGGYANGYGNSKWAGEVLLREAHDLCGLPVATFRSDMILAHPRYRGQVNVPDMFTRLLLSLLITGVAPRSFYIGDGERPRAHYPGLTVDFVAEAVTTLGAQQREGYVSYDVMNPHDDGISLDVFVDWLIRAGHPIDRVDDYDDWVRRFETALTALPEKRRAQTVLPLLHAFRAPQAPLRGAPEPTEVFHAAVRTAKVGPGDIPHLDEALIDKYIRDLREFGLI
B5: the “In vivo conversion efficiency (%) to: 1,4-butanediol” value in data set [5] (10 mM 4-hydroxybutyric acid) is given as 78.4 ± 6.2%. Further, in data set [5] (10 mM adipic acid), the “In vivo conversion efficiency (%) to: 1,6-hexanediol” value turned out to be 10.2 ± 3.4% and the “In vivo conversion efficiency (%) to: 6-hydroxyhexanoic acid” value came out at 30.3 ± 0.4%. Further, in data set [6], the “Activity [U/mg protein] 4-hydroxybutyric acid, 5 mM” value came to 0.058 ± 0.033 U/mg protein and the “Activity [U/mg protein] adipic acid, 5 mM” value amounted to 0.017 ± 0.005 U/mg protein. For the same molecule, in data set [7], the “In vitro conversion efficiency % to: 1,6-hexanediol” value was found to be 10.2 ± 3.4% and the “In vitro conversion efficiency % to: 6-hydroxyhexanoic acid” value was 30.3 ± 0.4%. The “In vivo conversion efficiency (%) to: 1,4-butanediol” value in data set [8] amounted to 78.4 ± 6.2%.

B6: BSU2381: OYE protein from Bacillus subtilis subsp. subtilis str. 168 (protein)
chain: MARKLFTPITIKDMTLKNRIVMSPMCMYSSHEKDGKLTPFHMAHYISRAIGQVGLIIVEASAVNPQGRITDQDLGIWSDEHIEGFAKLTEQVKEQGSKIGIQLAHAGRKAELEGDIFAPSAIAFDEQSATPVEMSAEKVKETVQEFKQAAARAKEAGFDVIEIHAAHGYLIHEFLSPLSNHRTDEYGGSPENRYRFLREIIDEVKQVWDGPLFVRVSASDYTDKGLDIADHIGFAKWMKEQGVDLIDCSSGALVHADINVFPGYQVSFAEKIREQADMATGAVGMITDGSMAEEILQNGRADLIFIGRELLRDPFFARTAAKQLNTEIPAPVQYERGW
For B6, the “hydrogenation” value in data set [1] is recorded as “no hydrogenation”. Also, the “Activity [U/mg protein] 2-cyclohexen-1-one” value in data set [2] was 0.21 U/mg protein.
